# From patent US20260167699A1 (Chugai, published 2026)
# B1: GpH7-A5/GpH7-B3 variant H268_05P/GpL16-k0 (antibody, human IgG1, kappa)
# heavy 1: not shown
# heavy 2: not shown
# light: DIVMTQSPLSLPVTPGEPASISCQASESLVHSNRNTYLHWYLQKPGQSPQLLIYKVSNRFSGVPDRFSGSGSGTDFTLKISRVEAEDVGVYYCSQNTHVPPTFGQGTKVEIERTVAAPSVFIFPPSDEQLKSGTASVVCLLNNFYPREAKVQWKVDNALQSGNSQESVTEQDSKDSTYSLSSTLTLSKADYEKHKVYACEVTHQGLSSPVTKSFNRGEC
# notes: He Ab; copies: 1 + 1 + 2
# B2: GpH7-A5/GpH7-B3 variant A327_09D/GpL16-k0 (antibody, human IgG1, kappa)
# heavy 1: not shown
# heavy 2: not shown
# light: B1 light
# notes: He Ab; copies: 1 + 1 + 2
# B3: GpH7-A5/GpH7-B3 variant A327_06M/GpL16-k0 (antibody, human IgG1, kappa)
# heavy 1: not shown
# heavy 2: not shown
# light: B1 light
# notes: He Ab; copies: 1 + 1 + 2
# B4: GpH7-A5/GpH7-B3 variant A330_01G/GpL16-k0 (antibody, human IgG1, kappa)
# heavy 1: not shown
# heavy 2: not shown
# light: B1 light
# notes: He Ab; copies: 1 + 1 + 2
# B5: GpH7-A5/GpH7-B3 variant D270_02A/GpL16-k0 (antibody, human IgG1, kappa)
# heavy 1: not shown
# heavy 2: not shown
# light: B1 light
# notes: He Ab; copies: 1 + 1 + 2
# B6: GpH7-A5/GpH7-B3 variant E269_13S/GpL16-k0 (antibody, human IgG1, kappa)
# heavy 1: not shown
# heavy 2: not shown
# light: B1 light
# notes: He Ab; copies: 1 + 1 + 2
# B7: GpH7-A5/GpH7-B3 variant E269_06M/GpL16-k0 (antibody, human IgG1, kappa)
# heavy 1: not shown
# heavy 2: not shown
# light: B1 light
# notes: He Ab; copies: 1 + 1 + 2
# B8: GpH7-A5/GpH7-B3 variant E269_02A/GpL16-k0 (antibody, human IgG1, kappa)
# heavy 1: not shown
# heavy 2: not shown
# light: B1 light
# notes: He Ab; copies: 1 + 1 + 2
# B9: GpH7-A5/GpH7-B3 variant E269_08L/GpL16-k0 (antibody, human IgG1, kappa)
# heavy 1: not shown
# heavy 2: not shown
# light: B1 light
# notes: He Ab; copies: 1 + 1 + 2
# B10: GpH7-A5/GpH7-B3 variant E269_01G/GpL16-k0 (antibody, human IgG1, kappa)
# heavy 1: not shown
# heavy 2: not shown
# light: B1 light
# notes: He Ab; copies: 1 + 1 + 2
# B11: GpH7-A5/GpH7-B3 variant D270_13S/GpL16-k0 (antibody, human IgG1, kappa)
# heavy 1: not shown
# heavy 2: not shown
# light: B1 light
# notes: He Ab; copies: 1 + 1 + 2
# B12: GpH7-A5/GpH7-B3 variant A330_16H/GpL16-k0 (antibody, human IgG1, kappa)
# heavy 1: not shown
# heavy 2: not shown
# light: B1 light
# notes: He Ab; copies: 1 + 1 + 2
# B13: GpH7-A5/GpH7-B3 variant A327_05P/GpL16-k0 (antibody, human IgG1, kappa)
# heavy 1: not shown
# heavy 2: not shown
# light: B1 light
# notes: He Ab; copies: 1 + 1 + 2
# B14: GpH7-A5/GpH7-B3 variant D270_14T/GpL16-k0 (antibody, human IgG1, kappa)
# heavy 1: not shown
# heavy 2: not shown
# light: B1 light
# notes: He Ab; copies: 1 + 1 + 2
# B15: GpH7-A5/GpH7-B3 variant A330_08L/GpL16-k0 (antibody, human IgG1, kappa)
# heavy 1: not shown
# heavy 2: not shown
# light: B1 light
# notes: He Ab; copies: 1 + 1 + 2
# B16: GpH7-A5/GpH7-B3 variant A330_14T/GpL16-k0 (antibody, human IgG1, kappa)
# heavy 1: not shown
# heavy 2: not shown
# light: B1 light
# notes: He Ab; copies: 1 + 1 + 2
# B17: GpH7-A5/GpH7-B3 variant A327_18N/GpL16-k0 (antibody, human IgG1, kappa)
# heavy 1: not shown
# heavy 2: not shown
# light: B1 light
# notes: He Ab; copies: 1 + 1 + 2
# B18: GpH7-A5/GpH7-B3 variant A327_10E/GpL16-k0 (antibody, human IgG1, kappa)
# heavy 1: not shown
# heavy 2: not shown
# light: B1 light
# notes: He Ab; copies: 1 + 1 + 2
# B19: GpH7-A5/GpH7-B3 variant A330_06M/GpL16-k0 (antibody, human IgG1, kappa)
# heavy 1: not shown
# heavy 2: not shown
# light: B1 light
# notes: He Ab; copies: 1 + 1 + 2
# B20: GpH7-A5/GpH7-B3 variant A330_18N/GpL16-k0 (antibody, human IgG1, kappa)
# heavy 1: not shown
# heavy 2: not shown
# light: B1 light
# notes: He Ab; copies: 1 + 1 + 2
# B21: GpH7-A5/GpH7-B3 variant A330_19Q/GpL16-k0 (antibody, human IgG1, kappa)
# heavy 1: not shown
# heavy 2: not shown
# light: B1 light
# notes: He Ab; copies: 1 + 1 + 2
# B22: GpH7-A5/GpH7-B3 variant A327_19Q/GpL16-k0 (antibody, human IgG1, kappa)
# heavy 1: not shown
# heavy 2: not shown
# light: B1 light
# notes: He Ab; copies: 1 + 1 + 2
# B23: GpH7-A5/GpH7-B3 variant A327_13S/GpL16-k0 (antibody, human IgG1, kappa)
# heavy 1: not shown
# heavy 2: not shown
# light: B1 light
# notes: He Ab; copies: 1 + 1 + 2
# B24: GpH7-A5/GpH7-B3 variant A330_10E/GpL16-k0 (antibody, human IgG1, kappa)
# heavy 1: not shown
# heavy 2: not shown
# light: B1 light
# notes: He Ab; copies: 1 + 1 + 2
# B25: GpH7-A5/GpH7-B3 variant A330_15Y/GpL16-k0 (antibody, human IgG1, kappa)
# heavy 1: not shown
# heavy 2: not shown
# light: B1 light
# notes: He Ab; copies: 1 + 1 + 2
# B26: GpH7-A5/GpH7-B3 variant D270_19Q/GpL16-k0 (antibody, human IgG1, kappa)
# heavy 1: not shown
# heavy 2: not shown
# light: B1 light
# notes: He Ab; copies: 1 + 1 + 2
# B27: GpH7-A5/GpH7-B3 variant A330_09D/GpL16-k0 (antibody, human IgG1, kappa)
# heavy 1: not shown
# heavy 2: not shown
# light: B1 light
# notes: He Ab; copies: 1 + 1 + 2
# B28: GpH7-A5/GpH7-B3 variant D270_03V/GpL16-k0 (antibody, human IgG1, kappa)
# heavy 1: not shown
# heavy 2: not shown
# light: B1 light
# notes: He Ab; copies: 1 + 1 + 2
# B29: GpH7-A5/GpH7-B3 variant E269_07I/GpL16-k0 (antibody, human IgG1, kappa)
# heavy 1: not shown
# heavy 2: not shown
# light: B1 light
# notes: He Ab; copies: 1 + 1 + 2
# B30: GpH7-A5/GpH7-B3 variant E269_03V/GpL16-k0 (antibody, human IgG1, kappa)
# heavy 1: not shown
# heavy 2: not shown
# light: B1 light
# notes: He Ab; copies: 1 + 1 + 2
# Target: T1, FcγRIIIa extracellular domain, C-terminal His tag (human, UniProt P08637 17-208)
# T1 construct: extracellular domain; also called 3a
# Test: SPR, binding activity relative to GpH7-A5/GpH7-B3/GpL16-k0 (=100)
# T1 sequence (P08637 other isoform, or with tags, fused parts or gaps): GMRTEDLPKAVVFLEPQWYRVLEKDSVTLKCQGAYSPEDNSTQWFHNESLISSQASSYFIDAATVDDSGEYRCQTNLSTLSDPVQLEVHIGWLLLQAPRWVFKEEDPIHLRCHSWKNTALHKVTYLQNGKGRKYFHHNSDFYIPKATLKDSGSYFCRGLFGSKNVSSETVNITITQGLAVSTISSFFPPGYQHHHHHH
row,He/Con 3a,Binder
1,75.6%,B1
2,86%,B2
3,54%,B3
4,87.3%,B4
5,50.5%,B5
6,62.1%,B6
7,57.9%,B7
8,68%,B8
9,51.5%,B9
10,61.6%,B10
11,51.4%,B11
12,102%,B12
13,61.9%,B13
14,55.4%,B14
15,122%,B15
16,85.8%,B16
17,62.8%,B17
18,70.5%,B18
19,139%,B19
20,67.3%,B20
21,86.3%,B21
22,54%,B22
23,66.7%,B23
24,82.8%,B24
25,122%,B25
26,74.2%,B26
27,56.4%,B27
28,54.6%,B28
29,55.3%,B29
30,56%,B30
